T1: GFP-9S library array, motif 4 ND N98A;D124T (synthetic construct, N98A;D124T)
T1 chain: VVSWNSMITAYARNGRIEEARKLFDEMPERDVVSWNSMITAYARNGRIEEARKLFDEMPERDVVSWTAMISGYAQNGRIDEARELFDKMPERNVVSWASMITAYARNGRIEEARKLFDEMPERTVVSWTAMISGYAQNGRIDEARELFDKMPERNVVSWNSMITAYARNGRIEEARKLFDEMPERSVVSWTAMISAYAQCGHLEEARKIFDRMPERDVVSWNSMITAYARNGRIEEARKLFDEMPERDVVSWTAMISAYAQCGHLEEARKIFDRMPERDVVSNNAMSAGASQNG

T2: GFP-9S library array, motif 4 ND N98C;D124E (synthetic construct, N98C;D124E)
T2 chain: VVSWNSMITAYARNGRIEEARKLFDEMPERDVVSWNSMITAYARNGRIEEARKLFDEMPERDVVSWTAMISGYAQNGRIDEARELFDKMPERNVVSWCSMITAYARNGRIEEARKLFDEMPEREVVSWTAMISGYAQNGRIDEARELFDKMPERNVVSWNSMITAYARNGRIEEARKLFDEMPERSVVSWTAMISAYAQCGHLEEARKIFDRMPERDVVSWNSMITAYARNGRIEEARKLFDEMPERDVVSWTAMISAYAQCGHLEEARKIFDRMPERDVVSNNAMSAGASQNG

T3: GFP-9S library array, motif 4 ND N98D;D124E (synthetic construct, N98D;D124E)
T3 chain: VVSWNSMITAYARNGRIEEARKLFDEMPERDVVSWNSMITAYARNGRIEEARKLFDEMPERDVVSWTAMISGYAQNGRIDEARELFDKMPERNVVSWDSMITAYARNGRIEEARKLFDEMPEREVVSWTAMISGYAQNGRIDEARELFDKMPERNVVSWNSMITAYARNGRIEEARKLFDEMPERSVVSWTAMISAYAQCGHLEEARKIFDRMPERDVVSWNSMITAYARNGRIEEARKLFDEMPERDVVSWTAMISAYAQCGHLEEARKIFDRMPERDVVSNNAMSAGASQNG

T4: GFP-9S library array, motif 4 ND N98I (synthetic construct, N98I)
T4 chain: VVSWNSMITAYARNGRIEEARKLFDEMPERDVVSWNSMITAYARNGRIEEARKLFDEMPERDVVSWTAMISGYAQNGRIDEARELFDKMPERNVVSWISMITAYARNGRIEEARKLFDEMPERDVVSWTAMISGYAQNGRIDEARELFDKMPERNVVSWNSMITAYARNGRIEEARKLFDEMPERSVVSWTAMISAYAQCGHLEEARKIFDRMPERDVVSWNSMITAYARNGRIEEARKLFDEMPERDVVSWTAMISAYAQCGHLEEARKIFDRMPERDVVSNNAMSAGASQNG

T5: GFP-9S library array, motif 4 ND N98D;D124S (synthetic construct, N98D;D124S)
T5 chain: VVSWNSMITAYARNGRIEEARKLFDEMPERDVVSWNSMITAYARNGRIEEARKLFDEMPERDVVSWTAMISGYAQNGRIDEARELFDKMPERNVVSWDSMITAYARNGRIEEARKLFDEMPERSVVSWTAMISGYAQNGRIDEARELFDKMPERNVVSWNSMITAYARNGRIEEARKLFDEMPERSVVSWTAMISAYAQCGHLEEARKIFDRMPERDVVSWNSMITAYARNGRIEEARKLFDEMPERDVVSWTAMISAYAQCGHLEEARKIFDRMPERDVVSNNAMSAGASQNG


Experiments:
Assay in all cases: high-throughput RNA pulldown from lysate on Ni-NTA beads; HRP: 50 mM Tris pH 8, 150 mM NaCl, 1 mM beta-mercaptoethanol, 50 ug/ml BSA, 3 ug/ml yeast RNA, 0.5% heparin; ITC and FP: Tris pH 8, 200 mM KCl, 5% glycerol; MST: 50 mM Tris pH 8, 200 mM NaCl, 1 mM DTT, BSA, heparin, 0.05% Tween 20
Details in all cases: tags: N-terminal His-eGFP
[1] = target: T1, GFP-9S library array, motif 4 ND …
[2] = target: T2, GFP-9S library array, motif 4 ND …
[3] = target: T3, GFP-9S library array, motif 4 ND …
[4] = target: T4, GFP-9S library array, motif 4 ND N98I
[5] = target: T5, GFP-9S library array, motif 4 ND …

Row | Binder | Kd ([1]; label: 5' IRDye 800CW) [nM] | Kd ([2]; label: 5' IRDye 800CW) [nM] | Kd ([3]; label: 5' IRDye 800CW) [nM] | Kd ([4]; label: 5' IRDye 800CW) [nM] | Kd ([5]; label: 5' IRDye 800CW) [nM] | Kd ([1]; label: 5' Cy5) [nM] | Kd ([2]; label: 5' Cy5) [nM] | Kd ([3]; label: 5' Cy5) [nM] | Kd ([4]; label: 5' Cy5) [nM] | Kd ([5]; label: 5' Cy5) [nM]
1 | AUUAAACGUGA (ssRNA) [IR-rpoA-A] | 90.7 | 146 | 343 | 175 | 759 | – | – | – | – | –
2 | AUUAGACGUGA (ssRNA) [Cy5-rpoA-G] | – | – | – | – | – | 107 | 39.5 | 95.2 | 127 | 260
3 | AUUACACGUGA (ssRNA) [Cy5-rpoA] | – | – | – | – | – | 102 | 503 | 124 | 153 | 401
4 | AUUAUACGUGA (ssRNA) [IR-rpoA-U] | 68.9 | 170 | 283 | 53.5 | 470 | – | – | – | – | –
